In patent US20210206861A1 (SUNSHINE GUOJIAN PHARMACEUTICAL SHANGHAI, published 2021):

B1: 4-2-Humanized-IgG1 (antibody)
heavy: not shown
light: DIQMTQSPSSLSASVGDRVTITCRASSSINYMHWYQQKPGKAPKPWIYAASNLASGVPSRFSGSGSGTDFTLTISSLQPEDFATYYCQQWSSYPITFGQGTKVEIKRTVAAPSVFIFPPSDEQLKSGTASVVCLLNNFYPREAKVQWKVDNALQSGNSQESVTEQDSKDSTYSLSSTLTLSKADYEKHKVYACEVTHQGLSSPVTKSFNRGEC
notes: expressed in HEK293E; also called humanized antibody 4-2-Humanized-IgG1
B2: 4-2-Humanized-IgG4 (antibody)
heavy: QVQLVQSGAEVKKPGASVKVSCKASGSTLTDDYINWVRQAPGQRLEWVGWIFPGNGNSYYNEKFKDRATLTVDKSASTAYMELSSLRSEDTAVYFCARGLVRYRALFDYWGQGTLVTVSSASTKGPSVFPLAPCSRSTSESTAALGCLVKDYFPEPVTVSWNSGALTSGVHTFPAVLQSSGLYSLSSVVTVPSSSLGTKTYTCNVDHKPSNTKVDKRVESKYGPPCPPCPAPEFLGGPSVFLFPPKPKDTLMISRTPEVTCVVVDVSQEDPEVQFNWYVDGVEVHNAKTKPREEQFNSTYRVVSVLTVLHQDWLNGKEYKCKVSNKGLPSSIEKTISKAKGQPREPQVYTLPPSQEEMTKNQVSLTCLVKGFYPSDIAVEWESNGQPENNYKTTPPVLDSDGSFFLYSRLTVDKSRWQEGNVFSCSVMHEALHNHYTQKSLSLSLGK
light: B1 light
notes: also called 4-2-Hu-IgG4
B3: 4-2-Humanized-IgG1-SELF (antibody)
heavy: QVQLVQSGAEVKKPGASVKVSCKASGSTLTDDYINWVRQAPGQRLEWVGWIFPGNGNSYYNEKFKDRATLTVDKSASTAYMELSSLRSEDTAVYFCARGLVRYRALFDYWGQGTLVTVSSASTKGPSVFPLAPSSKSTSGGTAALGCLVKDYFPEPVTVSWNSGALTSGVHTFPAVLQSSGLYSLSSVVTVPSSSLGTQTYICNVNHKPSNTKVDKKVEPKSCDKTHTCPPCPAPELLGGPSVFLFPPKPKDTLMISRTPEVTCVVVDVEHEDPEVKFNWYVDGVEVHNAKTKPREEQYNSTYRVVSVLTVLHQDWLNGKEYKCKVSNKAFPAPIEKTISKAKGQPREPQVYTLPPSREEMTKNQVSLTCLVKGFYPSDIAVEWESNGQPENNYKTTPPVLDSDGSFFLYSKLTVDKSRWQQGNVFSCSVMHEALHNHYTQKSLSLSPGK
light: B1 light
notes: also called SELF mutant of anti-human IL-4R humanized antibody
B4: 4-2-Chimeric-IgG1 (antibody, V domains shown)
VH: QVQLQQSGPELVKPGASVKISCTASGSTLTDDYINWVKQRPGRGLEWVGWIFPGNGNSYYNEKFKDKATLIVDKSSSTAYMLLSSLTSEDSAVYFCARGLVRYRALFDYWGQGTTLTVSS
VL: QIVLSQSPAILSASPGEKVTMTCRASSSINYMHWYQQKPGSSPKPWIYAASNLASGVPARFSGSGSGTSFSLTISRVEAEDAATYYCQQWSSYPITFGSGTKLEIK
notes: also called chimeric antibody 4-2-Chimeric-IgG1
B5: Dupilumab (antibody, V domains shown)
VH: EVQLVESGGGLEQPGGSLRLSCAGSGFTFRDYAMTWVRQAPGKGLEWVSSISGSGGNTYYADSVKGRFTISRDNSKNTLYLQMNSLRAEDTAVYYCAKDRLSITIRPRYYGLDVWGQGTTVTVSS
VL: DIVMTQSPLSLPVTPGEPASISCRSSQSLLYSIGYNYLDWYLQKSGQSPQLLIYLGSNRASGVPDRFSGSGSGTDFTLKISRVEAEDVGFYYCMQALQTPYTFGQGTKLEIKR

These binders were tested against human IL-4R (human, UniProt P24394 26-825) (assay: cell-based or functional assay).

IC50 of inhibition of IL-4-induced CD23 expression by PBMC, first experiment [µg/mL] | IC50 of inhibition of IL-4-induced CD23 expression by PBMC, second experiment [µg/mL] | IC50 of inhibition of IL-4-induced IgE secretion by PBMC, first experiment [µg/mL] | IC50 of inhibition of IL-4-induced IgE secretion by PBMC, second experiment [µg/mL] | IC50 of inhibition of IL-4-induced TF-1 cell proliferation, first experiment [µg/mL] | IC50 of inhibition of IL-4-induced TF-1 cell proliferation, second experiment [µg/mL] | IC50 of inhibition of IL-4-induced TF-1 cell proliferation, third experiment [µg/mL] | IC50 of inhibition of IL-13-induced TF-1 cell proliferation [µg/mL] | IC50 of inhibition of IL-4-induced TF-1 cell proliferation [µg/mL] | Binder
0.0294 | 0.00356 | 0.448 | 0.0613 | 0.561 | 0.427 | 0.52 | 0.0343 | – | B1
0.232 | 0.034 | 1.95 | 0.413 | 1.29 | 1.11 | 1.15 | – | 2.78 | B2
0.0074 | 0.00049 | 0.0508 | 0.0266 | – | – | – | – | 0.292 | B3
– | – | – | – | – | – | – | 0.0816 | 0.225 | B4
0.0909 | 0.0206 | 0.996 | 0.189 | 0.842 | 0.616 | 0.687 | 0.0738 | – | B5

Each binder was assayed against T1, IL-4R-ECD-FLAG (human, UniProt P24394 26-232) (assay: ELISA on coated IL-4R-ECD-FLAG (100 ng/ml), HRP goat anti-human secondary).
T1 construct: Expressed in HEK293, purified on an anti-FLAG column; also called IL-4R antigen; human IL-4R; not shown: FLAG tag added to the end of the IL-4R-ECD coding region

EC50 [µg/mL] | Binder
0.0124 | B1
0.0118 | B4

Each binder was assayed against T1, IL-4R-ECD-FLAG (assay: SPR, Biacore T200; antibody captured on Protein A/G CM5 chip, IL-4R-ECD-FLAG injected).
Procedure: Next cycle was repeated after eluting the chip with 6M guanidine hydrochloride regeneration buffer. The data was analyzed using Biacore T200 Evaluation Software.

Kd [pM] | koff [s⁻¹] | kon [M⁻¹ s⁻¹] | Binder
717 | 0.000133 | 186000 | B1
692 | 0.00013 | 188000 | B2

Each binder was assayed against T2, Biotinated IL-4R-ECD-hFc (human, UniProt P24394 26-232, biotinylated with Biotin N-hydroxysuccinimide ester (sites not given)) (assay: blocking ELISA: coated IL-4-hFc (2000 ng/ml), biotinylated IL-4R-ECD-hFc (100 ng/ml) with antibody in dilution series, Streptavidin-HRP).
T2 construct: also called biotinylated IL-4R-ECD-hFc; not shown: hFc (IgG1) tag
Procedure: The plate was washed with phosphate buffer containing 0.05% Tween-20 (PBST) and blocked by adding PBST containing 1% bovine serum albumin to each well. Then the plate was washed with PBST. […] The plate was washed with PBST. Streptavidin-HRP which was diluted with PBST containing 1% BSA at a dilution ratio of 1:1000 was added at 100 μl/well and incubated at 37° C. for 30 min. Chromogenic solution (TMB substrate solution) was added at 100 μl/well, and incubated at room temperature for 1˜5 min; then 50 μl/well of the stop solution was added to stop the color reaction. OD450 values were read with a microplate reader and GraphPad Prism6 was used to analyze data, prepare graphs, and calculate IC50.

IC50 [µg/mL] | Binder
0.138 | B1
0.14 | B2
0.144 | B3
